Here are results for seven substances from publication PMC3078909.

Data set [1] relates to Cys14. Nature of the data set: chemical modification (MMTS inactivation followed by enzyme activity). The following applies: not stated for the pKa determination (MMTS inactivation and activity assays were at 25°C); 100 mM TEA, 10 mM EDTA adjusted to the desired pH; free enzyme, 5 µg/mL, 80 µM MMTS.
The target of data set [2] is T1, Cys15 (UniProt position 15, AANWKCNGSES). The description is as above. The following applies: not stated for the pKa determination (MMTS inactivation and activity assays were at 25°C), 100 mM TEA, 10 mM EDTA adjusted to the desired pH, free enzyme, 5 µg/mL.
Data set [3] has as its target T1, Cys15. Nature of the data set: chemical modification (as in ref 24; this article says its new determinations were made 'under the same conditions'). The following applies: free enzyme; cited from earlier work.
The target in data set [4] is Cys15 (UniProt position 14, AANWKCNGSQQ). Nature of the data set: chemical modification (MMTS inactivation followed by enzyme activity). The following applies: not stated for the pKa determination (MMTS inactivation and activity assays were at 25°C); 100 mM TEA, 10 mM EDTA adjusted to the desired pH; free enzyme, 5 µg/mL, 80 µM MMTS.
Data set [5] has as its target T2, Cys14 (UniProt position 14, AANWKCNGSQQ). The description is as above. The following applies: not stated for the pKa determination (MMTS inactivation and activity assays were at 25°C); 100 mM TEA, 10 mM EDTA adjusted to the desired pH; free enzyme, 5 µg/mL, 80 µM MMTS.
The target in data set [6] is T2, Cys14. Nature of the data set: chemical modification (as in ref 24; this article says its new determinations were made 'under the same conditions'). The following applies: free enzyme; cited from earlier work.
Setting [7] is: 10 and 80 µM MMTS (mean of both).

For the substance “Chimera TcTIM 2,3, 5-8 (TcTIM with regions 1 and 4 of TbTIM) (Trypanosoma cruzi / Trypanosoma brucei chimera; regions 1 and 4 of TcTIM replaced by the TbTIM sequence (13 + 5 differing residues, not listed individually in the text))”, the pKa (in general, the negative logarithm of the acid dissociation constant) in data set [1] is given as 10.61±0.06.

For “Chimera TcTIM 1-3, 5-8 (TcTIM with region 4 of TbTIM) (Trypanosoma cruzi / Trypanosoma brucei chimera; region 4 of TcTIM replaced by the TbTIM sequence (5 substitutions, not listed individually in the text))”, the pKa in data set [2] (setting [7]) amounted to 9.59±0.06.

As to “Triosephosphate isomerase (TcTIM), wild type (Trypanosoma cruzi)”, the pKa was 9.27±0.16 in data set [2] (10 µM MMTS) and 9.28±0.07 in data set [3].

On to “Chimera TcTIM 1-3 (regions 1-3 of TcTIM, regions 4-8 of TbTIM) (Trypanosoma cruzi / Trypanosoma brucei chimera; regions 4-8 of TcTIM replaced by the TbTIM sequence (individual substitutions not listed in the text))”, for which the pKa in data set [2] (setting [7]) amounted to 9.86±0.05.

In data set [2] (10 µM MMTS), “Chimera TcTIM 1-4 (regions 1-4 of TcTIM, regions 5-8 of TbTIM) (Trypanosoma cruzi / Trypanosoma brucei chimera; regions 5-8 of TcTIM replaced by the TbTIM sequence (individual substitutions not listed in the text; Figure 1 is image only))” had a pKa of 9.17±0.12.

“Chimera TcTIM 1 (region 1 of TcTIM, regions 2-8 of TbTIM) (Trypanosoma cruzi / Trypanosoma brucei chimera; region 1 of TbTIM replaced by the TcTIM sequence (13 differing residues plus a one-residue N-terminal length difference; individual substitutions not listed in the text))” returned a pKa in data set [4] of 9.49±0.08.

For the substance “Triosephosphate isomerase (TbTIM), wild type (Trypanosoma brucei)”, the pKa in data set [5] was 10.53±0.06; in data set [6], 10.08±0.03.
